Results from US20100290984A1 (DUKE UNIVERSITY, published 2010).
No end group written: not given here.

Tests used:
[1] = target: T1, MRP3-derived peptide III (PepIII) (human, also: conjugated to BSA, biotinylated, site not given here); experiment: SPR, BIAcore, biotinylated peptide on chip
T1 construct: Same peptide used as BSA conjugate (ELISA) and as biotinylated peptide (SPR)
T1 peptide: DAMADSRQNNTSLRL

[2] = target: T2, MRP3-derived peptide I (PepI) (human, conjugated to BSA in the ELISA; biotinylated in BIAcore and on streptavidin beads (site of attachment not stated)); experiment: ELISA, peptide-BSA coated, purified scFv, anti-His-HRP
T2 construct: Same peptide used as BSA conjugate (ELISA) and as biotinylated peptide (SPR on SA chip, bead assay); also called PepI antigen
T2 peptide: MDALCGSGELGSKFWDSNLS
Description: (§1) A 96-well plate was coated with 10 μg/ml of specific MRP3-derived peptides conjugated with BSA as antigen and BSA and other appropriate control antigens. The rest of the protocol was as described above except that the purified scFv antibodies were added in serial dilution to the wells, and the secondary Ab used was HRP-conjugated anti-His antibody at 1:5000 dilution (Invitrogen, Carlsbad, Calif.). To check for cross-reactivity of the recombinant scFvs, the ELISA plate was coated with different peptide antigens (i.e., PepI, PepII, PepIII, PepIV) derived from MRP3, conjugated to BSA with other controls. ScFv antibodies were then added at a 10 μg/ml concentration to each well.

[3] = target: T3, MRP3-derived peptide II (PepII) (human, also: conjugated to BSA, biotinylated, site not given here); experiment: as above
T3 construct: Same peptide used as BSA conjugate (ELISA) and as biotinylated peptide (SPR on SA chip, bead assay); also called PepII antigen
T3 peptide: VHTENPDLTPCF
Description: as §1

[4] = target: T4, MRP3-derived peptide IV (PepIV) (human, also: conjugated to BSA, biotinylated, site not given here); experiment: as above
T4 construct: Same peptide used as BSA conjugate (ELISA) and as biotinylated peptide (SPR)
T4 peptide: KIRSPQSFFDTTPSGRI
Description: as §1

[5] = target: T5, human multidrug resistance protein 3 (MRP3) (human, UniProt O15438 1-1527); experiment: indirect flow cytometry on MRP3-expressing glioma cells
T5 construct: whole, on cells; ABC transporter; endogenous on human malignant glioma cell lines D54MG, D247MG and pediatric GBM line D2159; also called cell-surface-expressed MRP3; native MRP3
Description: To determine that the purified anti-MRP3 scFvs bind native MRP3 expressed on the surface of tumor cells, indirect fluorescence-activated cell sorting (FACS) was performed using MRP3-expressing D54MG and D247MG cells under both permeabilized and nonpermeabilized conditions. Indirect FACS analysis of MRP3 expression on the surface of viable malignant pediatric GBM cell line D2159 growing as neuroshperes was also performed.
For cytometric analysis of PepI-58, PepI-25, PepII-89, PepIII-23, and PepIV-17 scFv antibodies, D54MG and D247MG cells (1×10⁶/test) were harvested with 0.02% EDTA/PBS and fixed by resuspending them in 2-4 ml of 10% formaldehyde. After washing, the cells were blocked with 10% normal goat serum (NGS) with and without saponin for 20 min. Saponin was added to facilitate the permeabilization for examining all […] receptors. Cells were washed twice and incubated with anti-his (C-terminus)-FITC conjugated antibody (1:5000, Invitrogen, Carlsbad, Calif.) for an hour at room temperature. Finally, cells were suspended in 0.5% PFA/BSA and freshly analyzed by using a Becton Dickinson FACSort with CellQuest software (Becton Dickinson, San Jose, Calif.).

[6] = target: T2, MRP3-derived peptide I (PepI); experiment: SPR, BIAcore 3000, KA=kassoc/kdiss
Description: (§2) Kinetic measurements of purified recombinant scFv were made by surface plasmon resonance using a BIAcore 3000 Biosensor (BIAcore, Piscataway, N.J.). Chips were functionalized with biotinylated peptides derived from MRP3 protein by using HEPES balanced salt solution (HBSS buffer), 10 mM HEPES pH 7.4, 150 mM NaCl, 3.4 mM EDTA, and 0.05% BIAcore surfactant P20. The scFv antibodies were diluted in HBSS buffer and passed over the SA chip at concentrations of 25, 200, and 1000 nM. The flow rate was kept at 30 μl/min, and the injection time was 3 min. Binding constants were calculated from the nonlinear fitting curve by using the BlAevaluation software (BIAcore).
(§3) The association and dissociation rates from the sensograms were in the same range for PepI-58 scFv, PepI-25 scFv, and PepII-89 scFv. […] The final binding affinity was determined by the software developed by BIAcore based on the kinetics calculated among various concentrations of antibody. PepI-25 scFv had kassoc=1.3×10⁵ (mol/L-s)⁻¹, kdiss=2.8×10⁻³ s⁻¹, and KA=kassoc/kdiss, was 4.6×10⁷ (mol/L)⁻¹.

[7] = target: T1, MRP3-derived peptide III (PepIII); experiment: ELISA, peptide-BSA coated, purified scFv, anti-His-HRP
Description: as §1

[8] = target: T2, MRP3-derived peptide I (PepI); experiment: SPR, BIAcore 3000, biotinylated pep-I on SA chip, scFv 25 to 1000 nM
Description: as §2, §3

[9] = target: T5, human multidrug resistance protein 3 …; experiment: indirect flow cytometry on viable D2159 cells (surface), anti-His-FITC detection
[10] = target: T3, MRP3-derived peptide II (PepII); experiment: SPR, BIAcore 3000, KA=kassoc/kdiss
Description: as §2, §3

[11] = target: T3, MRP3-derived peptide II (PepII); experiment: SPR, BIAcore 3000, biotinylated peptide on SA chip, scFv in flow
Description: as §2

[12] = target: T2, MRP3-derived peptide I (PepI); experiment: ELISA, plate coated with MRP3-derived peptides conjugated with BSA, purified scFv, HRP anti-His detection
Description: as §1

[13] = target: T1, MRP3-derived peptide III (PepIII); experiment: as above
Description: as §1

[14] = target: T4, MRP3-derived peptide IV (PepIV); experiment: as above
Description: as §1

[15] = target: T2, MRP3-derived peptide I (PepI); experiment: SPR, BIAcore 3000, biotinylated peptide on SA chip, scFv in flow
Description: as §2

[16] = target: T3, MRP3-derived peptide II (PepII); experiment: ELISA, plate coated with MRP3-derived peptides conjugated with BSA, purified scFv, HRP anti-His detection
Description: as §1

binding result [3]	binding result [4]	Ka [6]	binding result [13]	binding result [14]	Binder	binding result [9]	also measured
no binding (tested: 10 µg/ml)	no binding (tested: 10 µg/ml)	–	–	–	PepIII-23 scFv (scFv, not shown: Myc and hexahistidine tags from the pET 22(+) vector) scFv: EVQLVQSGGGLVKPGGSLRLSCAASGFSFNNYAGSWVRQAPGKGLEWISALSSGGDTTYYADSVAGRFAISRDNSKNTLYLQMHSLRAEDTAIYYCAQDPVVGAPGYFGLWGRGTLVTVSSGGGGSGGGGSGGGGSQSVLTQPPSASGSSGQSVTISCTGTSSDIGGYNYVSWYQQHPGKAPKLMIYEVSKRPSGVSDRFSGSKSGSTASLHISGLQAEDEADYYCSSYSSNNAPYVFGSGTKVAVLGQPKAAPS	–	binding result [1]: binds; binding result [2]: no binding (tested: 10 µg/ml); binding result [5]: no binding
no binding (tested: 10 µg/ml)	no binding (tested: 10 µg/ml)	4.6e+07 M⁻¹	–	–	PepI-25 scFv (scFv, not shown: Myc and hexahistidine tags from the pET 22(+) vector) scFv: EVQLVESGGGLVQPGGSLRLSCAASGFTFSNYAMTWVRQAPGKGLEWVSAISGSGGSTYYADSVKGRFTISRDNSKNTLYLQMNSLRAEDTAVYYCATGDLDYWGQGTTVTVSSGGGGSGGGGSGGGGSQTVVTQEPSLTVSPGGTVTLTCASSTGAVTSGYYPNWFQQKPGQAPRALIYSTSNKHSWTPARFSGSLLGGKAALTLSGVQPEDEAEYYCLLYYGGAQPYVVFGGGTKVTVLGQPKAAPS	binds	binding result [7]: no binding (tested: 10 µg/ml); koff [8]: 0.0028 s⁻¹
–	–	–	no binding (tested: 10 ug/ml)	no binding (tested: 10 ug/ml)	PepII-89 scFv (scFv, also called anti-MRP3 PepII-89scFv; not shown: Myc and hexahistidine tags from the pET 22(+) vector, at the C terminus) scFv: QVQLVQSGGGVVQPGRSLRLSCAASGFTFSSYGMHWVRQDPGKGLMWVSSISTDGSATKYADSVKGRFTISRDNAKNTVSLQMNSLRAEDTAVYYCVGGFLGWWGQGTLVTVSSGGGGSGGGGSGGGGSEIVLTQSPATLSLSPGERATLSCRASQSVGGSYLAWYQQKPGQAPRLLIYGASRRATGIPARFSGSGSGTDFTLTISSLQPEDFASYFCQQTNTFPLTFGGGTKVEIKRTVAAPTAAA	–	Ka [10]: 1e+07 M⁻¹; koff [11]: 0.005 s⁻¹; binding result [12]: no binding (tested: 10 ug/ml)
–	–	2.1e+07 M⁻¹	no binding (tested: 10 ug/ml)	no binding (tested: 10 ug/ml)	PepI-58 scFv (scFv, also called anti-MRP3 PepI-58scFv; not shown: Myc and hexahistidine tags from the pET 22(+) vector, at the C terminus) scFv: EVQLVQSGGGLVQPGGSLRLSCSASGFTFSNYAMHWVRRAPGKGLEYVSAISSNGGSTYYADSVKGRFTISRDNPKNTLYLQMNSLRAEDTAVYYCVRGRPYPLDVWGKGTLVTVSSGGGGSGGGGSGGGGSQSVLTQPPSASGTPGQRVTISCSGSSSNIESHAVNWYQHLPGSAPKLLIYFNNHRPSGVPERFSASKSGTSASLAISGLQSEDEADYYCAAWDDSLNGPVFGGGTKLTVLGQPKAAPS	binds	koff [15]: 0.0034 s⁻¹; binding result [16]: no binding (tested: 10 ug/ml)
